Assay results taken from the supplement of paper PMC7877785.
± gives the uncertainty stated by the source.

Experiment: self-splicing fitness, log relative to wild type (ln ratio); higher = more splicing; Tetrahymena group I intron in knt gene, E. coli kanamycin selection, DiMSum; sequences stand for … in CUCUCU…GGAGGGAAAAGUUAUCAGGCAUGCACCUGGUAGCUAGUCUUUAAACCAAUAGAUUGCAUCGGUUUAAAAGGCAAGACCGUCAAAUUGCGGGAAAGGGGUCAACAGCCGUUCAGUACCAAGUCUCAGGGGAAACUUUGAGAUGGCCUUGCAAAGGGUAUGGUAAUAAGCUGACGGACAUGGUCCUAACCACGCAGCCAAGUCCUAAGUCAACAGAUCUUCUGUUGAUAUGGAUGCAGUUCACAGACUAAAUGUCGGUCGGGGAAGAUGUAUUCUUCUCAUAAGAUAUAGUCGGACCUCUCCUUAAUGGGAGCUAGCGGAUGAAGUGAUGCAACACUGGAGCCGCUGGGAACUAAUUUGUAUGCGAAAGUAUAUUGAUUAGUUUUGGAGUACUCGUGGUCG
Method in brief: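 DiMSum derived fitness as the error-weighted combination of fold changes across replicates, kanamycin versus no kanamycin, normalised to wild type. E. coli BL21(DE3) held the library, which randomised all eight P1ex-region intron nucleotides within the knt kanamycin-resistance gene on pET-22b(+). Six replicate transformations grew overnight at 37°C or 30°C on LB agar with or without 25 μg/mL kanamycin, also containing 100 μg/mL carbenicillin, 50 μM IPTG and 0.2% rhamnose, and pooled colonies were amplicon-sequenced on an Illumina HiSeq 2500.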

Row | Sequence | self-splicing fitness (ln) (30 °C) | self-splicing fitness (ln) (37 °C)
1 | UAGUAGCAAUAUUACGCACU | -0.737 ± 0.11 | -0.331 ± 0.12
2 | UAGUAGCAAUAUUACGCAGC | -2.96 ± 0.47 | –
3 | UAGUAGCAAUAUUACGCCCA | 0.0306 ± 0.38 | –
4 | UAGUAGCAAUAUUACGCCUG | -0.198 ± 0.12 | -0.437 ± 0.13
5 | UAGUAGCAAUAUUACGCGAG | -1.57 ± 0.12 | -0.941 ± 0.17
6 | UAGUAGCAAUAUUACGCUCG | 0.127 ± 0.15 | 0.103 ± 0.19
7 | UAGUAGCAAUAUUACGGAGU | -4.27 ± 0.28 | -2.62 ± 0.16
8 | UAGUAGCAAUAUUACGGCUU | -0.242 ± 0.11 | 0.187 ± 0.13
9 | UAGUAGCAAUAUUACGGGCA | -1.17 ± 0.16 | -0.536 ± 0.15
10 | UAGUAGCAAUAUUACGUAGU | -4.39 ± 0.42 | -0.839 ± 0.21
11 | UAGUAGCAAUAUUACGUAUA | -1.69 ± 0.25 | -1.14 ± 0.27
12 | UAGUAGCAAUAUUACGUCUC | -3.51 ± 0.45 | -1.59 ± 0.2
13 | UAGUAGCAAUAUUACGUGUG | -2.02 ± 0.11 | -1.23 ± 0.13
14 | UAUAAGCAAUAUUACGAAAC | – | -0.0191 ± 0.39
15 | UAUAAGCAAUAUUACGAAUA | -1.55 ± 0.24 | -0.822 ± 0.19
16 | UAUAAGCAAUAUUACGACGG | -0.907 ± 0.12 | 0.474 ± 0.18
17 | UAUAAGCAAUAUUACGAGAG | -3.52 ± 0.38 | -2.52 ± 0.27
18 | UAUAAGCAAUAUUACGAGCA | -0.842 ± 0.23 | -0.234 ± 0.18
19 | UAUAAGCAAUAUUACGAUAA | -1.17 ± 0.12 | -0.947 ± 0.12
20 | UAUAAGCAAUAUUACGAUGA | -0.333 ± 0.1 | 0.344 ± 0.13
21 | UAUAAGCAAUAUUACGCAGA | -0.745 ± 0.45 | -1.25 ± 0.18
22 | UAUAAGCAAUAUUACGCCAA | -1.14 ± 0.29 | -0.0916 ± 0.42
23 | UAUAAGCAAUAUUACGCCGG | -0.545 ± 0.16 | -0.0733 ± 0.18
24 | UAUAAGCAAUAUUACGCCUG | -0.378 ± 0.13 | 0.297 ± 0.16
25 | UAUAAGCAAUAUUACGCGCG | -0.131 ± 0.11 | -0.655 ± 0.14

Row | Sequence | self-splicing fitness (ln) (30 °C) | self-splicing fitness (ln) (37 °C)
26 | UAUAAGCAAUAUUACGGAAA | -2.19 ± 0.37 | -1.48 ± 0.33
27 | UAUAAGCAAUAUUACGGAAU | -2.37 ± 0.22 | -0.6 ± 0.16
28 | UAUAAGCAAUAUUACGGCAA | -0.395 ± 0.17 | -0.0869 ± 0.2
29 | UAUAAGCAAUAUUACGGGUA | -0.177 ± 0.1 | 0.401 ± 0.12
30 | UAUAAGCAAUAUUACGGUUG | -1.61 ± 0.11 | -0.603 ± 0.13
31 | UAUAAGCAAUAUUACGUACA | -0.793 ± 0.12 | -0.427 ± 0.14
32 | UAUAAGCAAUAUUACGUCAC | -2.89 ± 0.33 | -1.38 ± 0.32
33 | UAUAAGCAAUAUUACGUCCA | -1.23 ± 0.12 | 0.113 ± 0.18
34 | UAUAAGCAAUAUUACGUCUC | – | -2.22 ± 0.35
35 | UAUAAGCAAUAUUACGUGAA | 0.0802 ± 0.12 | -0.933 ± 0.15
36 | UAUAAGCAAUAUUACGUGCC | -3.05 ± 0.22 | -1.44 ± 0.17
37 | UAUAAGCAAUAUUACGUGCU | -2.56 ± 0.16 | -1.32 ± 0.15
38 | UAUAAGCAAUAUUACGUGGA | -2.08 ± 0.19 | -1.71 ± 0.19
39 | UAUCAGCAAUAUUACGAAAU | -2.9 ± 0.16 | -0.792 ± 0.15
40 | UAUCAGCAAUAUUACGAACG | 0.353 ± 0.085 | 0.157 ± 0.094
41 | UAUCAGCAAUAUUACGAAGA | -0.93 ± 0.12 | -0.91 ± 0.13
42 | UAUCAGCAAUAUUACGAGUC | – | -1.81 ± 0.48
43 | UAUCAGCAAUAUUACGAUUU | 0.142 ± 0.055 | 0.207 ± 0.07
44 | UAUCAGCAAUAUUACGCACU | -0.0365 ± 0.087 | 0.104 ± 0.094
45 | UAUCAGCAAUAUUACGCUGA | – | -2.31 ± 0.37
46 | UAUCAGCAAUAUUACGCUGC | -2.59 ± 0.35 | -0.822 ± 0.24
47 | UAUCAGCAAUAUUACGGGAC | -3.15 ± 0.22 | -2.26 ± 0.25
48 | UAUCAGCAAUAUUACGGGCC | – | -2.07 ± 0.3
49 | UAUCAGCAAUAUUACGGUAC | -3.28 ± 0.26 | -2.54 ± 0.3
50 | UAUCAGCAAUAUUACGGUGA | -0.121 ± 0.054 | -0.19 ± 0.065

Row | Sequence | self-splicing fitness (ln) (30 °C) | self-splicing fitness (ln) (37 °C)
51 | UAUCAGCAAUAUUACGGUUG | -0.952 ± 0.068 | -0.113 ± 0.1
52 | UAUCAGCAAUAUUACGUAAG | -2.16 ± 0.16 | -1.09 ± 0.17
53 | UAUCAGCAAUAUUACGUAGU | -1.87 ± 0.086 | -1.19 ± 0.08
54 | UAUCAGCAAUAUUACGUCAA | -0.73 ± 0.092 | -0.445 ± 0.11
55 | UAUCAGCAAUAUUACGUUAU | -3.07 ± 0.11 | -1.89 ± 0.1
56 | UAUGAGCAAUAUUACGCAGU | -1.98 ± 0.24 | -0.419 ± 0.21
57 | UAUGAGCAAUAUUACGCGAG | -2.87 ± 0.17 | -0.834 ± 0.08
58 | UAUGAGCAAUAUUACGCGAU | – | -2.93 ± 0.37
59 | UAUGAGCAAUAUUACGCGUU | -4.08 ± 0.36 | -1.79 ± 0.24
60 | UAUGAGCAAUAUUACGCUCA | -2.45 ± 0.31 | -2.73 ± 0.27
61 | UAUGAGCAAUAUUACGCUGU | -3.79 ± 0.25 | -3.21 ± 0.24
62 | UAUGAGCAAUAUUACGGCGG | -3.22 ± 0.23 | -1.72 ± 0.26
63 | UAUGAGCAAUAUUACGGCUC | – | -0.823 ± 0.41
64 | UAUGAGCAAUAUUACGGUGA | -2.21 ± 0.16 | -3.36 ± 0.27
65 | UAUGAGCAAUAUUACGGUGC | -3.01 ± 0.41 | -0.888 ± 0.3
66 | UAUGAGCAAUAUUACGUACU | -4.19 ± 0.42 | -1.09 ± 0.41
67 | UAUGAGCAAUAUUACGUAGC | -3.71 ± 0.3 | -2.5 ± 0.29
68 | UAUGAGCAAUAUUACGUAUA | -2 ± 0.4 | -1.02 ± 0.28
69 | UAUGAGCAAUAUUACGUGAG | -2.91 ± 0.14 | -2.74 ± 0.23
70 | UAUGAGCAAUAUUACGUGCG | -1.06 ± 0.12 | -1.41 ± 0.16
71 | UAUGAGCAAUAUUACGUUAC | -3.37 ± 0.36 | -2.48 ± 0.23
72 | UAUGAGCAAUAUUACGUUUG | -3.93 ± 0.26 | -1.8 ± 0.15
73 | UAUUAGCAAUAUUACGACGC | -2.92 ± 0.48 | -2.18 ± 0.38
74 | UAUUAGCAAUAUUACGAUUG | -1.08 ± 0.089 | -0.0341 ± 0.14
75 | UAUUAGCAAUAUUACGCACG | -0.859 ± 0.16 | 0.0642 ± 0.17

Row | Sequence | self-splicing fitness (ln) (30 °C) | self-splicing fitness (ln) (37 °C)
76 | UAUUAGCAAUAUUACGCCGU | – | -1.63 ± 0.33
77 | UAUUAGCAAUAUUACGCGGG | -2.9 ± 0.18 | -1.59 ± 0.23
78 | UAUUAGCAAUAUUACGCUGG | -2 ± 0.14 | -0.655 ± 0.14
79 | UAUUAGCAAUAUUACGGAUU | -1.74 ± 0.12 | -0.699 ± 0.11
80 | UAUUAGCAAUAUUACGGCCC | -1.78 ± 0.5 | –
81 | UAUUAGCAAUAUUACGGGAG | -3.18 ± 0.16 | -2.16 ± 0.12
82 | UAUUAGCAAUAUUACGGGUC | -2.14 ± 0.37 | -2.29 ± 0.35
83 | UAUUAGCAAUAUUACGGUAA | -2.24 ± 0.26 | -1.54 ± 0.23
84 | UAUUAGCAAUAUUACGGUUA | 0.108 ± 0.097 | -0.239 ± 0.11
85 | UAUUAGCAAUAUUACGUCCC | -2.83 ± 0.42 | -0.713 ± 0.46
86 | UAUUAGCAAUAUUACGUUCA | -1.04 ± 0.1 | -0.21 ± 0.14
87 | UAUUAGCAAUAUUACGUUGG | -2.1 ± 0.21 | -0.685 ± 0.18
88 | UCAAAGCAAUAUUACGAACC | -2.8 ± 0.27 | -0.879 ± 0.28
89 | UCAAAGCAAUAUUACGAAGU | -2.96 ± 0.16 | -2.39 ± 0.24
90 | UCAAAGCAAUAUUACGACCA | -1.97 ± 0.22 | -1.4 ± 0.23
91 | UCAAAGCAAUAUUACGACCC | -3.88 ± 0.35 | -2.34 ± 0.39
92 | UCAAAGCAAUAUUACGAUCG | -0.659 ± 0.085 | -0.141 ± 0.11
93 | UCAAAGCAAUAUUACGCACU | -2.08 ± 0.11 | -2.5 ± 0.22
94 | UCAAAGCAAUAUUACGCCCC | -2.12 ± 0.39 | -1.54 ± 0.37
95 | UCAAAGCAAUAUUACGCCUA | -2.71 ± 0.2 | -0.722 ± 0.11
96 | UCAAAGCAAUAUUACGCGAG | -0.91 ± 0.12 | -0.54 ± 0.14
97 | UCAAAGCAAUAUUACGCUCU | -3.71 ± 0.27 | -2.69 ± 0.26
98 | UCAAAGCAAUAUUACGCUGA | -3.43 ± 0.29 | -1.62 ± 0.23
